Data: patent US20120316071A1 (published 2012)

T1: rHuman Erythropoietin R/Fc Chimera, CF (R&D Systems Cat#963-ER) (human, UniProt P19235 25-250)
T1 construct: Bought recombinant protein; also called EPO R; Epo R; Fc part of the bought chimera not given
T1 sequence (looked up): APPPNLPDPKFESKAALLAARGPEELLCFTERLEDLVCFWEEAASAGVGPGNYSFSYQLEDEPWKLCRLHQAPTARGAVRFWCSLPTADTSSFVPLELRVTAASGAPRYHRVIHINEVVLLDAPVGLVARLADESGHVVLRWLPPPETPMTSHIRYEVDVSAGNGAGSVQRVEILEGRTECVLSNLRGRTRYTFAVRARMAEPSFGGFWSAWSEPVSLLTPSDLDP

T2: rHuman Erythropoietin R/Fc Chimera, CF (R&D Systems Cat#963-ER) (human, UniProt P19235 25-250)
T2 construct: Bought recombinant protein; also called EPO R; EPO R/Fc; Fc part of the bought chimera not given
T2 sequence (looked up): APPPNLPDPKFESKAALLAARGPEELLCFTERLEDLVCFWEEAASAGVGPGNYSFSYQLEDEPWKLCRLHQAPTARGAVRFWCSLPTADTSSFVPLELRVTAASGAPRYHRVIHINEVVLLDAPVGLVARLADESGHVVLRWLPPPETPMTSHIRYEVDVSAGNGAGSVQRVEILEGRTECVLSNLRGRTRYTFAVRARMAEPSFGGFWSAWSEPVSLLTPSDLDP


Key:
[1] = target: T3, rHuman EGF R/Fc Chimera, CF (R&D Systems Cat#344-ER) (human, UniProt P00533 25-645); assay: ECL multispot (MSD) binding assay, antigens spotted on plate, 20 nM Fab;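 note: fab incubated 1 h at 20 °C on antigen-spotted wells, bound Fab detected by TAG-labelled antibody, ratio of 4 or more over blank counted as a hit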
T3 construct: Bought recombinant protein; also called epidermal growth factor receptor; Fc part of the bought chimera not given

[2] = target: T4, Recombinant Human DLL4 (R&D Systems Cat#1506-D4/CF) (human, UniProt Q9NR61 27-524); assay: as above
T4 construct: Bought recombinant protein; also called delta-like protein 4; rHuman DLL4

[3] = target: T5, rHuman IGF-1 sR, (IGF-1 sR), CF (R&D Systems Cat#391-GR) (human, UniProt P08069 31-932); assay: as above
T5 construct: Bought recombinant soluble receptor; The column head prints only 'IGF-1'; also called insulin-like growth factor-1 soluble receptor

[4] = target: T6, rHuman Notch-1/Fc Chimera, CF (R&D Systems Cat#3647-TK) (human, UniProt P46531 19-526); assay: as above
T6 construct: Bought recombinant protein; Fc part of the bought chimera not given

[5] = target: T7, rHuman CD44/Fc Chimera, CF (R&D Systems Cat#3660-CD) (human, UniProt P16070 21-220); assay: as above
T7 construct: Bought recombinant protein; Fc part of the bought chimera not given

[6] = target: T1, rHuman Erythropoietin R/Fc Chimera, CF …; assay: as above
[7] = target: T8, rHuman ErbB2/Fc Chimera, CF (R&D Systems Cat#1129-ER) (human, UniProt P04626 23-652); assay: as above
T8 construct: Bought recombinant protein; also called human epidermal growth factor 2 receptor; Fc part of the bought chimera not given

[8] = target: T9, Recombinant Human DLL4 (R&D Systems Cat#1506-D4/CF) (human, UniProt Q9NR61 27-524); assay: ECL (MSD) multispot binding assay, antigen spotted on plate, 20 nM Fab;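 note: purified Fab incubated 1 h at 20 °C on antigen-spotted plate, bound Fab revealed with TAG detection antibody, ECL read, antigen signal divided by same-well blank, ratio ≥4 counted as hit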
T9 construct: Bought recombinant protein; also called delta-like protein 4; rHuman DLL4

[9] = target: T10, rHuman ErbB2/Fc Chimera, CF (R&D Systems Cat#1129-ER) (human, UniProt P04626 23-652); assay: as above
T10 construct: Bought recombinant protein; also called human epidermal growth factor 2 receptor; Fc part of the bought chimera not given

[10] = target: T11, rHuman CD44/Fc Chimera, CF (R&D Systems Cat#3660-CD) (human, UniProt P16070 21-220); assay: as above
T11 construct: Bought recombinant protein; Fc part of the bought chimera not given

[11] = target: T12, rHuman IGF-1 sR, (IGF-1 sR), CF (R&D Systems Cat#391-GR) (human, UniProt P08069 31-932); assay: as above
T12 construct: Bought recombinant soluble receptor; also called insulin-like growth factor-1 soluble receptor

[12] = target: T13, rHuman Notch-1/Fc Chimera, CF (R&D Systems Cat#3647-TK) (human, UniProt P46531 19-526); assay: as above
T13 construct: Bought recombinant protein; Fc part of the bought chimera not given

[13] = target: T2, rHuman Erythropoietin R/Fc Chimera, CF …; assay: as above
[14] = target: T14, rHuman P-Cadherin/Fc Chimera, CF (R&D Systems Cat#861-PC) (human, UniProt P22223 108-654); assay: as above
T14 construct: Bought recombinant protein; Fc part of the bought chimera not given

[15] = target: T15, rHuman EGF R/Fc Chimera, CF (R&D Systems Cat#344-ER) (human, UniProt P00533 25-645); assay: as above
T15 construct: Bought recombinant protein; also called epidermal growth factor receptor; Fc part of the bought chimera not given

[16] = target: T16, rHuman P-Cadherin/Fc Chimera, CF (R&D Systems Cat#861-PC) (human, UniProt P22223 108-654); assay: ECL multispot (MSD) binding assay, antigens spotted on plate, 20 nM Fab;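 note: fab incubated 1 h at 20 °C on antigen-spotted wells, bound Fab detected by TAG-labelled antibody, ratio of 4 or more over blank counted as a hit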
T16 construct: Bought recombinant protein; Fc part of the bought chimera not given

ECL multispot signal (ratio to blank; column not labelled) [1] | ECL multispot signal (ratio to blank; column not labelled) [2] | ECL multispot signal (ratio to blank; column not labelled) [3] | ECL multispot signal (ratio to blank; column not labelled) [4] | ECL multispot signal (ratio to blank; column not labelled) [5] | ECL multispot signal (ratio to blank; column not labelled) [6] | ECL multispot signal (ratio to blank; column not labelled) [7] | ECL signal/blank ratio [8] | ECL signal/blank ratio [9] | ECL signal/blank ratio [10] | ECL signal/blank ratio [11] | ECL signal/blank ratio [12] | ECL signal/blank ratio [13] | ECL signal/blank ratio [14] | ECL signal/blank ratio [15] | ECL multispot signal (ratio to blank; column not labelled) [16] | Binder
2 | 1.9 | 1.6 | 1.5 | 1.5 | 11.1 | 1.4 |  |  |  |  |  |  |  |  |  | Fab VH3-23_IGHD2-21*01>3_IGHJ6*01 H100E/S108P/Y113G Y109G & V2-13_IGLJ2*01 (Fab, V domains shown, Tested as Fab made in E. coli: VH joined to CH1 (His and Flag tags), VL joined to lambda CL; also called EPG Y109G) VH: not shown VL: SSELTQDPAVSVALGQTVRITCQGDSLRSYYASWYQQKPGQAPVLVIYGKNNRPSGIPDRFSGSSSGNTASLTITGAQAEDEADYYCNSRDSSGNHLVVFGGGTKLTVL
 |  |  |  |  |  |  | 1.5 | 1.7 | 1.3 | 1 | 1.8 | 6.9 | 1.9 | 1.9 |  | Fab VH3-23_IGHD2-21*01>3_IGHJ6*01 H100E/S108P/Y113G/Y111I & V2-13_IGLJ2*01 (Fab, V domains shown, Fab made in E. coli: VH joined to CH1 (with His and Flag tags, plasmid A) and VL to lambda CL (plasmid E); also called EPG Y111I) VH: not shown VL: SSELTQDPAVSVALGQTVRITCQGDSLRSYYASWYQQKPGQAPVLVIYGKNNRPSGIPDRFSGSSSGNTASLTITGAQAEDEADYYCNSRDSSGNHLVVFGGGTKLTVL
 |  |  |  |  |  |  | 1.7 | 2.1 | 1.2 | 1.3 | 1.9 | 30.1 | 5 | 1.8 |  | Fab VH3-23_IGHD2-21*01>3_IGHJ6*01 H100E/S108P/Y113G/Y111S & V2-13_IGLJ2*01 (Fab, V domains shown, Fab made in E. coli: VH joined to CH1 (with His and Flag tags, plasmid A) and VL to lambda CL (plasmid E); also called EPG Y111S) VH: not shown VL: SSELTQDPAVSVALGQTVRITCQGDSLRSYYASWYQQKPGQAPVLVIYGKNNRPSGIPDRFSGSSSGNTASLTITGAQAEDEADYYCNSRDSSGNHLVVFGGGTKLTVL
1.1 | 1.4 | 1.2 | 1.1 | 1.2 | 2.9 | 0.9 |  |  |  |  |  |  |  |  | 1.7 | Fab VH3-23_IGHD2-21*01>3_IGHJ6*01 H100E/S108P/Y113G Y110P & V2-13_IGLJ2*01 (Fab, V domains shown, Tested as Fab made in E. coli: VH joined to CH1 (His and Flag tags), VL joined to lambda CL; also called EPG Y110P) VH: not shown VL: SSELTQDPAVSVALGQTVRITCQGDSLRSYYASWYQQKPGQAPVLVIYGKNNRPSGIPDRFSGSSSGNTASLTITGAQAEDEADYYCNSRDSSGNHLVVFGGGTKLTVL
 |  |  |  |  |  |  | 2.2 |  | 1.8 | 1.2 | 2 | 38.8 | 6.2 |  |  | Fab VH3-23_IGHD2-21*01>3_IGHJ6*01 H100E/S108P/Y113G/Y111T & V2-13_IGLJ2*01 (Fab, V domains shown, Fab made in E. coli: VH joined to CH1 (with His and Flag tags, plasmid A) and VL to lambda CL (plasmid E); also called EPG Y111T) VH: not shown VL: SSELTQDPAVSVALGQTVRITCQGDSLRSYYASWYQQKPGQAPVLVIYGKNNRPSGIPDRFSGSSSGNTASLTITGAQAEDEADYYCNSRDSSGNHLVVFGGGTKLTVL
 |  |  |  |  |  |  | 1.8 | 2.1 | 1.3 | 1.4 | 1.6 | 4.8 |  | 1.6 |  | Fab VH3-23_IGHD2-21*01>3_IGHJ6*01 H100E/S108P/Y113G/Y110R & V2-13_IGLJ2*01 (Fab, V domains shown, Fab made in E. coli: VH joined to CH1 (with His and Flag tags, plasmid A) and VL to lambda CL (plasmid E); also called EPG Y110R) VH: not shown VL: SSELTQDPAVSVALGQTVRITCQGDSLRSYYASWYQQKPGQAPVLVIYGKNNRPSGIPDRFSGSSSGNTASLTITGAQAEDEADYYCNSRDSSGNHLVVFGGGTKLTVL
1.3 | 1.2 | 1.1 | 0.8 | 1 | 4.5 | 1 |  |  |  |  |  |  |  |  | 1.9 | Fab VH3-23_IGHD2-21*01>3_IGHJ6*01 H100E/S108P/Y113G Y110S & V2-13_IGLJ2*01 (Fab, V domains shown, Tested as Fab made in E. coli: VH joined to CH1 (His and Flag tags), VL joined to lambda CL; also called EPG Y110S) VH: not shown VL: SSELTQDPAVSVALGQTVRITCQGDSLRSYYASWYQQKPGQAPVLVIYGKNNRPSGIPDRFSGSSSGNTASLTITGAQAEDEADYYCNSRDSSGNHLVVFGGGTKLTVL
1.7 | 1.9 | 1.3 | 1.4 | 1.4 |  | 2.2 |  |  |  |  |  |  |  |  |  | Fab VH3-23_IGHD2-21*01>3_IGHJ6*01 H100E/S108P/Y113G Y110H & V2-13_IGLJ2*01 (Fab, V domains shown, Tested as Fab made in E. coli: VH joined to CH1 (His and Flag tags), VL joined to lambda CL; also called EPG Y110H) VH: not shown VL: SSELTQDPAVSVALGQTVRITCQGDSLRSYYASWYQQKPGQAPVLVIYGKNNRPSGIPDRFSGSSSGNTASLTITGAQAEDEADYYCNSRDSSGNHLVVFGGGTKLTVL
0.9 | 1.2 | 0.9 | 1.3 | 0.8 | 1.6 | 1.2 |  |  |  |  |  |  |  |  | 1.2 | Fab VH3-23_IGHD2-21*01>3_IGHJ6*01 H100E/S108P/Y113G Y110N & V2-13_IGLJ2*01 (Fab, V domains shown, Tested as Fab made in E. coli: VH joined to CH1 (His and Flag tags), VL joined to lambda CL; also called EPG Y110N) VH: not shown VL: SSELTQDPAVSVALGQTVRITCQGDSLRSYYASWYQQKPGQAPVLVIYGKNNRPSGIPDRFSGSSSGNTASLTITGAQAEDEADYYCNSRDSSGNHLVVFGGGTKLTVL
 |  |  |  |  |  |  | 1.1 | 1.5 | 0.9 | 0.8 | 1.3 | 9.3 | 2.9 | 1.4 |  | Fab VH3-23_IGHD2-21*01>3_IGHJ6*01 H100E/S108P/Y113G/Y111N & V2-13_IGLJ2*01 (Fab, V domains shown, Fab made in E. coli: VH joined to CH1 (with His and Flag tags, plasmid A) and VL to lambda CL (plasmid E); also called EPG Y111N) VH: not shown VL: SSELTQDPAVSVALGQTVRITCQGDSLRSYYASWYQQKPGQAPVLVIYGKNNRPSGIPDRFSGSSSGNTASLTITGAQAEDEADYYCNSRDSSGNHLVVFGGGTKLTVL
1.8 | 1.5 | 1.3 | 1.4 | 1 | 30.1 | 2 |  |  |  |  |  |  |  |  | 7.4 | Fab VH3-23_IGHD2-21*01>3_IGHJ6*01 H100E/S108P/Y113G Y109R & V2-13_IGLJ2*01 (Fab, V domains shown, also called EPG Y109R) VH: not shown VL: SSELTQDPAVSVALGQTVRITCQGDSLRSYYASWYQQKPGQAPVLVIYGKNNRPSGIPDRFSGSSSGNTASLTITGAQAEDEADYYCNSRDSSGNHLVVFGGGTKLTVL
